Reference: a protein production outcome set (Wang et al. 2014)

Assay: label from the status in PepcDB records
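Also: failed if final PepcDB status was selected cloned or expressed and not failed if soluble or beyond.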

Sequence | protein production
MATPTEHEDLSEQEVTEDEFKTPKIRETPEDIKLEAIVNTIAFHPKQDILAAGDIDGDIYLFSYSCTEGENKELWSSGHHLKSCRKVLFSSDGQKLFSVSKDKAIHIMDVEAGKLETRIPKAHKVPINAMLLIDENIFATGDDEGTLKVWDMRKGTSFMDLKHHEDYISDITIDQAKRTLLTSSGDGTLGVFNIKRRRFELLSEIQNGDLTSVSIMKRGRKVVCGSGEGTIYIFNWNGFGATSDRFAVQAESVDCIVPITDSILCAASTDGVIRAINILPNRVVGSIGQHVGEAIEEIARCRDTHFLASCAHDELIKFWDISSLPDEKVNDYRRRKKKDRRLKALSNKAFDTGQNFFAGLLDTTEENGKEGENDEDDDDEDSDSGSD | not failed
MNKSTCLMAAETPSKRWRLHCLAFSQRFVRAGPACSSREACSSPRAGWNPAGFRLPGRWSPFVALHLVCQIREALKLRSGHRTPSGAGSSMQPPPSLCGRALVALVLACGLSRIWGEERGFPPDRATPLLQTAEIMTPPTKTLWPKGSNASLARSLAPAEVPKGDRTAGSPPRTISPPPCQGPIEIKETFKYINTVVSCLVFVLGIIGNSTLLRIIYKNKCMRNGPNILIASLALGDLLHIVIDIPINVYKLLAEDWPFGAEMCKLVPFIQKASVGITVLSLCALSIDRYRAVASWSRIKGIGVPKWTAVEIVLIWVVSVVLAVPEAIGFDIITMDYKGSYLRICLLHPVQKTAFMQFYKTAKDWWLFSFYFCLPLAITAFFYTLMTCEMLRKKSGMQIALNDHLKQRREVAKTVFCLVLVFALCWLPLHLSRILKLTLYNQNDPNRCELLSFLLVLDYIGINMASLNSCINPIALYLVSKRFKNCFKSCLCCWCQSFEEKQSLEEKQSCLKFKANDHGYDNFRSSNKYSSS | failed
MAEERRIDWSSLWKKEDWWAFWLGMLLFVLCLATAYGADIMGWVVKSSTWVDVSKAMGPTSKNFAYLGPIGSFVVSWLVLLILTTIGAVAMGWKGGKFAAAFTVIFILTWICWVIGHNAYIAATDPAKAGVPWSLRMTGEAGYIFALILGLIIGNFFKGFANWLKEAAKPEWFIKTAIVLLGAVVGIKAPTIPPEILYNYLFRGLCAIVEAYLIYWALVYWVARRYFGFSREWAAPLASGISICGVSAAIATGGAIRARPVVPVMVASLVIVFAVVELLFLPFLAATFLQHQPLVAGAWMGLAVKTDGAATASVKWLKL | failed
MEIKPGLSALVTGGASGIGRALCLALAEKGVFVTVADFSEEKGQETTSLVREANAKFHQGLSFPSAIFVKCDVTNRGDLLAAFDKHLATFGTLDICINNAGISTPLRFDKDDTDGSKSWKHTINVDLIAVVEGTQLAIKAMKAKQKPGVIINMGSAAGLYPMPVDPIYAASKAGVVLFTRSLAYYRRQGIRINVLCPEFIKTDLAEAIDASILESIGGYMSMDMLIKGAFELITDEKKAGACLWITKRRGLEYWPTPMEETKYLVGSSSRKRPSFKVSTKIEFPQSFEKMIVHTLSHKFRSATRIVRAPLQLPIGPHQVLLKIIYAGVNASDVNFSSGRYFTGGSPKLPFDAGFEGVGLIAAVGESVKNLEVGTPAAVMTFGAYSEYMIVSSKHVLPVPRPDPEVVAMLTSGLTALIALEKAGQMKSGETVLVTAAAGGTGQFAVQLAKLSGNKVIATCGGSEKAKLLKELGVDRVIDYKSENIKTVLKKEFPKGVNIIYESVGGQMFDMCLNALAVYGRLIVIGMISQYQGEKGWEPAKYPGLCEKILAKSQTVAGFFLVQYSQLWKQNLDKLFNLYALGKLKVGIDQKKFIGLNAVADAVEYLHSGKSTGKVVVCIDPAFEQKTSRL | failed
QAELMTLTIVKGAQGFGFTIADSPTGQRVKQILDIQGCPGLCEGDLIVEINQQNVQNLSHTEVVDILKDCPIGSETSLIIHRG | not failed
MNGSLQTADRTPVDYVNPYIGNISHLLVPTFPTIQLPNSMLRVYPERADYTSELLKGLPLIVTNHRERSAFNFSPYQGEKLRPVITYNYDNEHITPYSFDVELDDNRMKAEYALSHQSAIYRITYEADKPAYLIVNSRNGSIHANENFISGRQQLNDNTNVYVYIEAQEKPLEHHHHHH | not failed
MTKNKKGKNKEVINNYEEEEDYNIIDHDENAEVDVIPEPDFNSNMVYLNIYDLDSVSKVVNTVARSVGAGAFHAGVEVYGYEYSFGYIMDGETGVTKTNARVMIQKNNEILKNIKTYRIHVNIYIYIFLLVFSKTPLTKEEVDLLVEVMKLQWIGDTYDILSRNCLNYADYFCNLLDVGGIPEWVMSLQKKVTWVKSNINIAASKLKELNKAAGIPNVINYLKKKYEDSNSSDDYKGCKVVVK | failed
MIDRPLEGKVAFITGAARGLGRAHAVRLAADGANIIAVDICEQIASVPYPLSTADDLAATVELVEDAGGGIVARQGDVRDRASLSVALQAGLDEFGRLDIVVANAGIAMMQAGDDGWRDVIDVNLTGVFHTVQVAIPTLIEQGTGGSIVLISSAAGLVGIGSSDPGSLGYAAAKHGVVGLMRAYANHLAPQNIRVNSVHPCGVDTPMINNEFFQQWLTTADMDAPHNLGNALPVELVQPTDIANAVAWLASEEARYVTGVTLPVDAGFVNKR | not failed
MAGFMKNAMSYLGMSDVAEGEDDFEDDVDTGETSFDSDHSVTPMPSSSASASTPSAPREQSNPFQGGRVSRITTIHPKTYDDAQMVGRAIRDGIPVVLNLTGVAEAVAYRIVDFSAGVVFGVRGSIERVTPRVFLLSPAQVNIKVEEPEDKGPAHDLFAD | failed
QNNYLQSLEVQVMLDTLRVIHNPLQDYALVALMKSPMFGFDEDELARLSLQKAEDKVHENLYEKLVNAQKMASSQKGLIHTALAEKLKQFMDILASWRLYAKTHSLYDLIWKIYNDRFYYDYVGALPNGPARQANLYALALRADQFEKSNFKGLSRFIRMIDQVLEAQ | failed
MVTSTELTGQTAGVPDAGLVERALAYVREKADGEKPTTLPTGETVLSHAEGMLRILDGLRVDDAARAAACLFPMVAFVPGVEAHIEERFGEDVARLVKGVRQLLRIGAIATQAEAVETSKSQAAARQEQVEALRKMLLAFAQDIRVVLVRLASRLQTLRWLAQTKSQPLPGVARETLDIYAPLANRLGIWQMKWELEDLAFRFEQPETYKRIAKLLDEKRIEREGYISQAIARLQSELAAAGIRAEVTGRPKHIYSIWKKMRGKALDFADLYDVRAFRVIVDDIKDCYTVLGIVHHIWQPIPREFDDYISRPKANGYKSLHTVVIGDDGRAFEVQIRTHEMHHFAEYGVAAHWRYKEAGGKGYSGQFTADNSYDEKIAWLRQLLAWKDDADHTVTHEDSPWEQLKHAAIDDHIYVLTPQARVVALPQGATPVDFAYYLHSDLGHRCRGARVDGAMVPLNTPLKNGQTVEIVAVKQGGPSRDWLNPELGYLASSRARAKVRAWFNALDSQETIAQGRALIEKTLQREGKTAVNLDDLATRLNFKTPDDLFAAVAKEEFSLRHVEQALRHPDGEVQPQFSEEEAVTKKSRATSVARGAKSGVLVVGVDSLMTQMSRCCKPAPPDDIVGFVTRGRGVSIHRRNCHTFQQLSTRDPERVIQTEWGKRSDAVYPVDIQVEAIDRQGLLRDISEVLSREKINVTGVKTLSSKGVARMQFTAEVAEATQLQRAISLIEEVQGVLHAKRK | failed
MMEKDERFKQAEFGAIVGIVGNIILAIIKAVIGYIGNSKALLADAVHSASDVIGSLAVLFGLRAAKQPPDEDHPYGHGKAESISAIIVAVLLFIVGIEIAISSIKAFSQELEPPKGITIFAVVLSIIVKEGMFQYKFRLGKRVNSDAIIANAYEHRSDVFSSIAALIGICAAIIGGKFGLDWLVYADPIAGLFVSLLVAKMAWSIGTEAIHATLDHVLHEEDVIPLREAVLQIDGVKKIGSLYAREHGHYVIVDIKVSVDPYITVEEGHRIGKRVKETLMLQDNVQNVFVHINPYSPN | failed
MFEFISLDRDGVLYIAAFLVIIRSVSLYIFSKGNNVDKANVNILMLVFFLLFMTASSLSSWPLIYFLALFFVGSIISFTWFTYSGMITPFGSGLTAISTTLLLCLLSYMLSFYETFVEHGFQAIFIAIFLFSIITSIYSFYYLPFSQNSLFYLNFKRNKKVMHIQSVSEVYSPKVTIHLPCYSEPPEIVINTLNSISALDYDNYEVIVIDNNTRDETLWKPVEKHCSMLGEKFRFYHVPVLAGAKAGALNYALKITSSDTELIAVIDADYITEPDFIRRYVKIFKDENVGFVQTSHDYYNHQSSPVMEGAYYFWTLFHKIELPSYTEINAAFTVGTMCILRRNILEKVGGWDETALTEDSELAVRMHAQGYIGYVFADTVGRGLIPTTFSDMKKQQVRWTAGPVQQLLKHWRLYFGFSSENKMTLNQRVMEIRHSTSRIKPVFSLISLHIMVVVSFFLLSGNVYLSIPYEFIVFFLCMLISTFIEKMAYFRLFNCSGILPVFYHGIMARALEWTFIYGVISSLFGFSMKWDRTNKFENSKSIKRAFLASKIEVVMSVFFFLYSFFLLSGNHSGYNDFVFLTGIACLVKGIGFLCALLVASLLENNLRILEAP | failed
